Test results published in patent US20210145828A1 (RUTGERS THE STATE UNIVERSITY OF NEW JERSEY, published 2021).

Target: T1, Gα12 (human, UniProt Q03113 1-381)
T1 sequence: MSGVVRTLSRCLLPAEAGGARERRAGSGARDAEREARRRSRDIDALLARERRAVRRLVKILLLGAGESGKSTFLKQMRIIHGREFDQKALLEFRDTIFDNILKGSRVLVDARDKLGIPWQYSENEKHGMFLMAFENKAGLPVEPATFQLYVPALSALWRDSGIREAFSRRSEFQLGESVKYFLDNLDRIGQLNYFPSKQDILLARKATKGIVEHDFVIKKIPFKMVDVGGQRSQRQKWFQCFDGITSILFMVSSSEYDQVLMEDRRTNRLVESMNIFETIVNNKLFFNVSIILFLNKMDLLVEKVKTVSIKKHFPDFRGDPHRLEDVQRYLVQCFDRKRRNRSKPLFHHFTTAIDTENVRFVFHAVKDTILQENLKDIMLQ
Experiment: cell-based or functional assay

B1: M3-muscarinic acetylcholine receptor (M3R) (receptor)
chain: not shown
SRE-luciferase reporter activity after carbachol stimulation (10 µM, 6 hours): 76
